Source: the nanobody polyreactivity screen of Harvey et al. (2022)

Experiment: yeast display, Sf9 membrane polyspecificity reagent, FACS + sequencing; frameworks hold sequencing errors
Method in brief: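 Using colony PCR, genes from sorted yeast display clones were amplified, then sequenced on MiSeq at 2 × 250 and filtered by CDR length. The clones had been stained with 10% biotinylated, detergent-solubilized Sf9 membrane reagent for 1 hour at 4 °C and sorted by FACS into low and high (top ~1%) gates on anti-HA and streptavidin fluorescence. Polyreactivity labels come from the gate of origin.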

Row | Sequence | polyreactivity (PSR sort gate)
1 | QVQLVESGGGLVQAGGSLRISCAASGRIFWANVMGWYRQAPGKERELVAAITGGGRTYYADSVKGRFTISRDNAKNTVYLQMNSLKPEDTAVYYCNAELNWYYYIHLDYWGQGTQVTVSS | low polyreactivity
2 | QVQLVESVGGLVQAGGRLRLSCAASGSTFAFNAMGWSRQAPGKEREFVAVISYRTDNTYYADSVKGRFTISRDNAKNTVYLQMNSLKPEDTAVYYCAAASSYSKKPYYSYGYWGQGTQVTVSS | high polyreactivity
3 | QVQLGESGGGLVQAGGSLSLSCAASGFSISWYVMGWYRLAPGKERELVAAISWSGDRTYYADSVKGRFTISRDNAKNTVYLQMNSLKPEDTAVFYCAARRWRKYFSGYNYWGQGTQVTVSS | high polyreactivity
4 | QVQLVESGAGLVQAGGSLRLSCAASGGTLRYYAMGWYRPAPGKEREFVASISRSGGSTYYADSVKGRFTISRYNAKNTVYLQMNSLKPEDTAVYYCAAYWSPGYTTGRGYWGQGTQVTVSS | high polyreactivity
5 | QDQLVESGGGLVQAGRSLRLTCAASGSIIPGNAMGWYRQAPGKERELVAVIDFSGASTYYADSVKGRFTISRDNAKNTVYLQMNSLKPEDTADYWGQGTQVTVSS | low polyreactivity
6 | QVQLVESGGGLVQAGGSLRLSCAASGRIFPENAMGWYRQAPGKERELVAAINNNDGDTYYADSVKGRFTISRDNAKNTVYLQMNSLKPEDTAVYYCAADEAYWLSYVWGIGYDYWGQGTQVTVSS | low polyreactivity
7 | QVQHVESGGGLVQAGGSLRLSCAASGFIFSWNAMGWYRQAPGKERELVAGISWSGGSTYYADSVKGRFTISRDNAKNTVYLQMNRLKPEDTAVYYCAKEPSVGTGGVYRYGRGDYWGQGTQVTVSS | low polyreactivity
8 | QVQLVESGGGLVMAVGSLRLSCAASGSTFAGNAMGWYRQAPGKERELVAAISIVGSTSYADSVKGRFTISRDNAKITFYLQMNSLKPEDTAVYDCAAEWVTSYLNYYHWGQGTQVTVSS | low polyreactivity
9 | QVQIVESGGGLVQAGGSLRVSCAPSGNISYSYDMGWYRQAPGKERELVASITESGGSTYYADSVKGRFTISRDNAKNTVYFQMNILKPEDTAVYYCYWGHGTQVTVSS | low polyreactivity
10 | QVQLEESAGGLVQAGGSLRLSCAASGYTFGRYAMGWYRQEPGKERELVAVITTGDSTYYADSVKGRFTISRDNAKNTVNLLMNSLKPEDTAVYYCAADGRLSRPFDYWGQGTQVTVSS | low polyreactivity
11 | QVQLVESGGGLVQAGGSLRLSCAASGGIFYFNAMGWYRQAPGKERELVASITWSGGNTYYADSVKGRFTISRDNAKNTVYLQMNSLKPEDTAVYYCAADTQEYRPTYDYWGQGTQVTVSS | low polyreactivity
12 | QLQREESGGGLVQAGGSLRLSCAASGRTFTRYAMGWYRQAPVKERELVAAISGGGGSTYYADSVKGRFTISRDNAKITVYLQINSLKPEDTAVYYCNAAARVYSFDYWGQGTQVTVSS | low polyreactivity
13 | QVQLVESGGGLVQAGGSLRLSCAASGSIFGYYAMGWYRQAPGNERELVAAISFSAGNTYYADSVKGRFTISRDNAKNTVYLQMNSLKPEDSAVYYCAADPKYWTGWIWTSGYDYWGQGTQVTVSS | high polyreactivity
14 | QVQLVESGGGLVQAGGSLRLSCADSGTTVIFNAMGWYRQAPGKERELVGAISWRLGRTYYAYSVKGRFTISRDNAKNTVYLQMNSLTPEDTAVYYCARDYSRHKGDYWGQGTQVTVSS | low polyreactivity
15 | QVQLEESGGGLVQAGGSLRLSCAASGRIFYRYAMGWYRQAPGKERELVAAISWSGGSTNYADSVRGRFTISRDNAKNTVYLQMNSLKPEDTAVYYCAAKYRSIRESATYYYWGQGTQVTVSS | high polyreactivity
16 | QVQLVESGGGLVQAGGSLRLSCAASGSTFGFYAMGWYRQAPGKERELVAAIDSGGSTYYADSVKGRFTISRDNAKNTVYLQMNSLKPEDTAVYYCAVRHRYTRAYWGRDYWGQGTQVTVSS | low polyreactivity
17 | QVQLVESGGGLVQAGGSLRLSCAASGRIFSSNAMGSYRQAPGKERELVAGISIRGGSTYYADSVKGRFTISRDNAKNTVYLQMNSLKPEDTAVYYCAKDGRRRRTFDYWGQGTQVTVSS | high polyreactivity
18 | QVQLLESGGGLVQAGGSLRLSCAASGSIFGRYVMGWYRQAPGKERELVPRITQSGGSTYYADSVKGRFTISRDNAKNTVYLQMNSLKPEDTAVYYCNVARWGNIPVGEYDYWGQGTQVTVSS | high polyreactivity
19 | QVQHVESGGGLVQAGGSLRLSCAASGSTFVQNAMGWYRQAPGKERELVAAISRSGGRTYYAYSVKGRFTISRDNAKNTVYLQMNSLKPEDTAVYYCAARYPVRPDDGYWGKGTQVTVSS | high polyreactivity
20 | QVQLVESGRGLVQAGGSLRLSSAASGRIFPTNAMGWYRQAPGKERELVASIDSGDITHYADSVKGRFTISRDNAMNTVYLQMISLKPEDTAVYYCAKRPQAQYTYITGDDYWGQGTQVTVSS | low polyreactivity
21 | QVQLVEAGGGLVQAGGSLRLSCAASGIIFYLYTMGWYRPAPGKERELVAAISSSDGSTYYADSVKGRFTISRDNAKNTVYLQMNSLKPEDTAVYYCAAEYRGYLDDYYYWGQGTQVTVSS | high polyreactivity
22 | QVQLVESGGGLVQAGGSLRLSCAASGSIFSSYAMGWYRQAPGKEREVVASINSAGSTNYADSVKGRFTISRDNAKNTVYLQMNSLKPDDTAVYYCAASGGTWVNYRPEYDYWGQGTQVTVSS | low polyreactivity

Row | Sequence | polyreactivity (PSR sort gate)
23 | QVQLVESGGGLVQAGGSLRLSCAASGRIFGRNAMAWYRQAPGKERELVAAISTSGGTYYADSVKGRFTISRDNAKNTVYLQMISLKPEDTAVYYCNDRGRTQQRWVDYWGQRTQVTVSS | high polyreactivity
24 | QVQLVESGGGLVQAGGSLRLSCAASGFTFSPNAMGGYRQAPGKERELVAAISKRGASTYYADSVKGRFTISRDNAKNTVYLQMNSLKPEDTAVYYCNVGASARKPYDYWGQGTQVTVSS | high polyreactivity
25 | QVQLVESGGGLVQAGGSLRLSCAASGSIFTNNAMGRYRQAPGKERELVAGISFRGSSTYADSVKGRFTISRDNAKNTVYLQMNSLKPEDTAVYYCAAEWFDLEDDYWGQGTQVTVSS | low polyreactivity
26 | QVQLVESGGGLVQAGGSLRLSCAPSGGIFGRNAMGWYRQAPGKESELVAGITNGGSTTYADSVKGRFTISRDNAKNTVYLQMNSLKPEDTAVYYCAVQLYRRWPYYQTHGYDYWGQGTQVTVTS | low polyreactivity
27 | QVQLVESGGGLVQAGGSLRLSCAASGRTFAPYAMGWYRQARGQERELVATITRTGRTNYADSVKGRFTISRDNAKNTVYLQMNSLKPEDTAVYYCAAYTYYGFYYWGQGTQVTVSS | high polyreactivity
28 | QVQLVESGGGLVQAGGSLRLSCAASGRIFEPYAMGWYRQAPGKERELVAAISWSGTSTRYADSVKGRFTISRDNAKNTVYLQMNSLKPEDTAVYYCAARGNNPARGGYWGQGTQVTVSS | high polyreactivity
29 | QVQLVESGGGLVQAGGSLRLSCAASGRTFSYYAMGWYRQAPGKERELGAANSGGGRTNYADSVKGRFTISRDNAKNTVYLQMNSLKPEDTAVYYCAAGASRKYQYYSRSYDYWGQGTQVTVSS | high polyreactivity
30 | QVQLVESGGGLVQAGGSLRLSCAASGSIFHVNAMGWYRQAPGKERELVADISKRGASTYYADSVKGRFTISRDNAKNTVYLQMNSLKPEDTAVYYCAARVVTPRRQWYTYDYWGQGTQVTVSS | high polyreactivity
31 | QVQLVESGGGLVQAGGSLRLICAASGFIFFSNAMGWYRQAPGKERELVAVIDRATSTYYADSVKGRFTISRDNAKNTFYLQLNSLKPEDTAVYYCNADGEEVYDFNYFLSFKGDYWGQGTQVTVSS | low polyreactivity
32 | QVQLVESGGGLVQAGGSLRLSCAASGSTFPVYAMGWYRQAPGKERELVAAITSGGSTYYADSVKGRFTISRDNAKNTVYLQMNSLKPEDTAVYYCAAEDSSPAYNHWGHGTQVTVSS | low polyreactivity
33 | QVQLVESGGGLVQAGGSLRLISAASGSIFVGNAMGWYRQSPGKERELVAAISRSGGRTYYADSVKGRFTISRDNAKNTVYLQMNSLKPEDTAVYYCNAYGWEQRQMDSWGQGTQVTVSS | high polyreactivity
34 | QDQHVESGGGLVQAGGILRLICAASGPIFGYNAMGWYRQEPGQERELVAAINSDGSKNYADSVKGRFTISRDNAKITVYLQMISLKPEDTAVYYCNQLLYPVGDYEFWGQGTQVTVSS | low polyreactivity
35 | QFQLVESGGGLVQAGGSLRLSCAASGLTFYAYARGWYRQAPGKDSELVAAISSGGSTSYADSVKGRFTISRDNAKYTVYLQMNSLKPEDTAVYYCAARPISSRFFGWGYNYWGQGTQVTVSS | high polyreactivity
36 | QVQLVESGGGLVQAGGSLRLSCAASGLIFPYYTMGWYRQAPGKEGELVAVINRGGSTSYADSVKGRFTISRDNAKNTFYLQMNSLKPEDTAVYYCAARKWRYYSHVIYDYWGQGTQVTVSS | high polyreactivity
37 | QVQLVESGGGLVQAGGSHRLTCAASGRTFIFYAMGWYRPEPGKERELVAAITYSGTSTYYADSVKGRFTISRDNAKNTVYLQMNSLKPEDTAVYYCAKDGQRDANYYWGQGTQVTVSS | low polyreactivity
38 | QVQLVESGGGLVQAGGSLRLSCAASGNTFRRYAMGWYRQAPGKEREFVAAISSSGGRTYYADSVKGRFTISRDNAKNTVYVQMNSLKPEDTAVYYCNAVSYWVRGEMDYWGQGTQVTVSS | high polyreactivity
39 | QVQLVETGGGLVQAGGSLRLSCAASGRTFTKYAMGWYRQAPGKERELVAAISGNGGSTHYADSVKGRFTISRDNAKNTVYLQMNSLKPEDTAVYYCAADHRHKSNSWGQGTQVTVSS | low polyreactivity
40 | QVQLVESGGGLVQAGGSLRLSCAASGSIFQANAMGWYRQAPGKERELLAAISSRGGSTYYADSVKGRFTISRDNAKNTVYLQMNSLKPGDTAVYYCAADSIQYTARPYDYWGQGTQVTVSS | low polyreactivity
41 | QVQLVESGGGLVQAGGSLRLSCAASGRIIVLYAMGWYRQAPGKERELVASIRSGGSTNYADSVKGRFTISRDNAKNTVYLQMNSLKPEDTAVYYCAARIRSVVPFDMDYWGQGTQVTVSS | low polyreactivity
42 | QVQLVESGGGLVQAVGRLRLSCAASGITLSLYAMGWYRQATGKETELVAAISRGGGRTYYADSVKGRFTISRDNAKNTVYLQMNSLKPEDTAVYYCNKGRNPGPAYFASVDYWGQGTQVTVSS | high polyreactivity
43 | QVQLVESGGGLVQAGGSLRLSCAASGFTFWYYVMGWYRQAPGKERELVAAITSSGDSTYYADSVKGRFTISRDNAKNTVYLQMNSLKPEDTAVYYCAAQRYPFERDYWGQCTQVTVSS | high polyreactivity
